{"source": "patent US10000775B2", "about": "“Biosynthesis of 1-undecene and related terminal olefins” (The Regents of the University of California, priority 2013, dated 2018)", "molecules": {"B1": {"name": "PFL_4321: protein of 261 amino acids from Pseudomonas fluorescens Pf-5; non-heme iron (II)-dependent enzyme converting medium-chain fatty acids into terminal olefins (protein, listed as Pseudomonas fluorescens)", "chain": "MIDTFSRTGPLMEAASYPAWTQQLIQDCSESKRRVVEHELYQRMRDNKLSAKVMRQYLIGGWPVVEQFALYMAQNLTKTRFARHPGEDMARRWLMRNIRVELNHADYWVHWSRAHGVTLEDLQAQQVPPELHALSHWCWHTSSADSLIVAIAATNYAIEGATGEWSALVCSNGIYAAAFPEEDRKRAMKWLKMHAQYDDAHPWEALEIIVTLAGLNPTKALQAELRQAICKSYDYMYLFLERCMQQEKTAVTRERLALAEG"}}, "key": {"[1]": {"test": "Enzyme recycling experiments", "format": "biochemical", "conditions": "for 1-undecene produced (activity) compared with the original PFL_4321: recycled after single turnover with EDTA, reconstituted with fresh Fe2+", "experimental": "To recycle the PFL_4321, 1 mL of the oxygenated buffer solution (50 mM MES, pH 6.2, 100 mM NaCl) was mixed with 1 mL of an O2-free solution containing 50 mM MES buffer (pH 6.2), 100 mM NaCl, 200 μM PFL_4321, 1 mM (NH4)2Fe(SO4)2, 2 mM LA, so that the final mixture contained 50 mM MES buffer (pH 6.2), 100 mM NaCl, 100 μM PFL_4321, 0.5 mM (NH4)2Fe(SO4)2, and 1 mM LA. This original reaction was quenched by adding 10-fold excess of EDTA to iron. The mixture was desalted on a GE Disposable PD-10 column and incubated at 4° C. on a nutator for two hours to completely remove the residual 1-undecene in the solution. The recycled apo-PFL_4321 was concentrated by using Centrifugal Filter Units (Millipore) and subjected to a second enzymatic assay that contained 50 mM MES buffer (pH 6.2), 100 mM NaCl, 100 μM PFL_4321, 0.5 mM (NH4)2Fe(SO4)2, and 1 mM LA. To initiate the reaction, 100 μL of the oxygenated buffer solution (50 mM MES, pH 6.2, 100 mM NaCl) was mixed with 100 μL of an O2-free solution containing 50 mM MES buffer (pH 6.2), 100 mM NaCl, 200 μM PFL_4321, 1 mM (NH4)2Fe(SO4)2, 2 mM LA. The control group was set up under similar conditions except that the original apo-PFL_4321 which had not been used for any enzymatic reactions was used. The experimental group containing recycled PFL_4321 produced 80% of the 1-undecene compared with the control group that contained the original PFL_4321."}, "[2]": {"test": "In vitro anaerobic enzymatic assays", "format": "biochemical", "experimental": "FIG. 6 illustrates GC-MS detection of 1-undecene production by PFL_4321 in the aerobic/anaerobic assays. The anaerobic assay was performed by using the anaerobically purified enzyme and degassed reagents, adding glucose oxidase/glucose/catalase, and conducting the experiment in an anaerobic chamber with ppm O2<0.7. The control aerobic assay was performed by using a similar reaction mixture under ambient air conditions and omitting glucose oxidase.\nAll of the reagents were bubbled with nitrogen gas and equilibrated in the anaerobic chamber overnight before use. E. coli BL21 Gold (DE3, pZR60_HRV3c) was grown, harvested, and lysed as mentioned above. The insoluble fraction was removed by centrifugation, and the soluble proteins were incubated with 1 mL of Ni-NTA beads (Qiagen) on a nutator at 4° C. for 1 hr. The proteins were then moved into the anaerobic chamber, loaded onto a gravity flow column, washed with washing buffer (50 mM imidazole, 20 mM Tris, 300 mM NaCl, pH 8.5), and eluted with eluting buffer (300 mM imidazole, 20 mM Tris, 300 mM NaCl, pH 8.5). Purified proteins were exchanged into 20 mM Tris (pH 8.5) and 300 mM NaCl by passing through a desalting column (GE Disposable PD-10), and then concentrated using Amicon Centrifugal Filter Units. The protein solution was equilibrated in the anaerobic chamber on a Thermomixer at 4° C. overnight. […]"}, "[3]": {"test": "Stoichiometry determination in single-turnover reactions", "format": "biochemical", "experimental": "FIG. 27 illustrates the requirement for O2 for PFL_4321 activity.\nTo investigate 1-undecene formation and the O2 consumption, 0.5 mL of reaction mixture was prepared to contain 50 mM MES buffer (pH 6.2), 300 mM NaCl, 45 μM PFL_4321-Fe(II), and 500 μM LA (25 mM stock solution of LA sodium salt was prepared in 2% tergitol; tergitol is not required for <150 μM of LA). MES buffer (pH 6.2) was selected to reach slightly higher enzymatic activity than other buffers such as Bis-Tris (pH 6.0-7.0), Tris (pH 7.5-8.5), MOPS (pH 6.5-7.5), and HEPES (pH 6.8-8.0). The reaction was performed in a sealed headspace vial, initiated by adding PFL_4321 at room temperature and quenched by injecting equal volume of 5 M NaOH. 1-undecene production was analyzed and quantified using the SPME-GCMS method. The correlations of total 1-undecene produced and enzyme used were further determined varying PFL_4321 concentrations (40-1000 μM), and similar single turnover reactions were obtained in all assays (˜0.7-0.8 molecule of 1-undecene per molecule of PFL_4321-Fe(II)). O2 concentration was measured in a sealed reaction chamber (0.5 mL) with an integrated oxygen electrode unit (Oxygraph Plus System, Hansatech Instruments, UK). For the control group, LA was omitted from the reaction mixture."}, "[4]": {"system": "Saccharomyces cerevisiae S288c", "test": "Small-scale 1-alkene production in S. cerevisiae", "format": "cell-based", "conditions": "expression of PFL_4321, 30° C., 36 hours", "experimental": "FIG. 25 illustrates GC-MS analysis of 1-undecene and nonene productions from Saccharomyces cerevisiae S288c (pESC_URA_PFL_4321). Saccharomyces cerevisiae S288c (pESC_URA_PFL_4321) was cultured in YPD media in sealed headspace vial at 30° C. for 36 hours before sampling using SPME-GCMS method.\nPFL_4321 was PCR-amplified by using pESC-und-F/-R as primers (Table 1) and pZR59 as template, digested with BamH1/Sal1, and ligated into the pESC-URA vector to yield pESC-PFL_4321. S. cerevisiae was then transformed with pESC-PFL_4321 using the lithium acetate method outlined in the pESC-URA manual (Stratagene). Transformants were selected by […]. The cultures were grown in yeast-peptone media supplemented with 1% galactose in headspace GC vials at 30° C. for 36 hr before SPME-GCMS analysis."}, "[5]": {"conditions": "measured stoichiometry, aerobic"}}}
{"molecule": "B1", "values": [{"measurement": "1-undecene production by recycled enzyme", "setting": "[1]; EDTA omitted, desalted", "value": "failed to catalyze the reaction"}, {"measurement": "1-undecene produced (activity) compared with the original PFL_4321", "setting": "[1]; listed as apo-PFL_4321", "value": "over 80%"}, {"measurement": "1-undecene produced (activity) compared with the original PFL_4321", "setting": "[1]; listed as recycled PFL_4321", "value": 80, "unit": "%"}, {"measurement": "1-undecene production in anaerobic enzymatic assays", "setting": "[2]; anaerobic", "value": "nearly abolished"}, {"measurement": "decrease of 1-undecene production in anaerobic enzymatic assays", "setting": "[2]; anaerobic versus aerobic", "value": "more than 150 fold"}, {"measurement": "1-undecene produced per molecule of PFL_4321-Fe(II)", "setting": "[3]; [5]", "value": "approximately one"}, {"measurement": "O2 consumed per molecule of PFL_4321-Fe(II)", "setting": "[3]; [5]", "value": "approximately one"}, {"measurement": "total 1-undecene produced per enzyme used", "setting": "[3]; single turnover reactions, PFL_4321 40-1000 μM", "value": "0.7-0.8 molecule of 1-undecene per molecule of PFL_4321-Fe(II)"}, {"measurement": "production of 1-alkenes in Saccharomyces cerevisiae", "setting": "[4]", "value": "led to the production of 1-undecene and 1-nonene in comparable amounts"}]}
